Measured values: US20210139569A1 (STRESSMARQ BIOSCIENCES, published 2021)

Experiments:
[1] = molecular target: α-synuclein peptide AA 101-130, BSA conjugate (human, N-terminus conjugated to a C-6 spacer (Ahx), which is conjugated to an N-terminal cysteine; conjugated to BSA); assay: binding to overlapping peptides (FIG. 10)
Method: (§1) ELISA conditions for epitope mapping: Nunc® MaxiSorp™ 98 well plates ELISA plates were coated with peptide conjugated to BSA at 0.1 μg/well in 100 μl/well CCB (pH 9.6) overnight at 4° C. The plates were then blocked with 3% skim milk powder in PBS for 3 hours at room temperature. 100 μL/well antibody (1 μg/mL) was added and incubated for 1 hour at 37° C. Secondary Antibody 1:10,000 Goat anti-mouse IgG/IgM (H+L)-HRP at 100 uL/well in PBS-Tween for 1 hour at room temperature. All washing steps performed for 30 mins with PBS-Tween. […] Development time: 15 minutes. Plates were read at 450 nm.

[2] = molecular target: T1, α-synuclein peptide AA 41-70, BSA conjugate (human, N-terminus conjugated to a C-6 spacer (Ahx), which is conjugated to an N-terminal cysteine; conjugated to BSA); assay: ELISA on BSA-conjugated peptide (FIG. 10)
T1 construct: also called 41-70aa
Method: as §1

[3] = molecular target: α-synuclein peptide AA 81-110, BSA conjugate (human, N-terminus conjugated to a C-6 spacer (Ahx), which is conjugated to an N-terminal cysteine; conjugated to BSA); assay: ELISA on BSA-conjugated peptide (FIG. 10)
Sequence of α-synuclein peptide AA 81-110, BSA conjugate (human, N-terminus conjugated to a C-6 spacer (Ahx), which is conjugated to an N-terminal cysteine; conjugated to BSA) (peptide, as listed by the source): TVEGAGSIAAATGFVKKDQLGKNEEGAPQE
Method: as §1

[4] = molecular target: α-synuclein peptide AA 121-140, BSA conjugate (human, N-terminus conjugated to a C-6 spacer (Ahx), which is conjugated to an N-terminal cysteine; conjugated to BSA); assay: ELISA on BSA-conjugated peptide (FIG. 10)
Method: as §1

[5] = molecular target: T2, α-synuclein peptide AA 21-50, BSA conjugate (human, N-terminus conjugated to a C-6 spacer (Ahx), which is conjugated to an N-terminal cysteine; conjugated to BSA); assay: ELISA on BSA-conjugated peptide (FIG. 10)
T2 construct: also called 21-50aa
Method: as §1

[6] = molecular target: T3, α-synuclein peptide AA 1-30, BSA conjugate (human, N-terminus conjugated to a C-6 spacer (Ahx), which is conjugated to an N-terminal cysteine; conjugated to BSA); assay: ELISA on BSA-conjugated peptide (FIG. 10)
T3 construct: also called 1-30aa
Method: as §1

Sequence of α-synuclein peptide AA 101-130, BSA conjugate (human, N-terminus conjugated to a C-6 spacer (Ahx), which is conjugated to an N-terminal cysteine; conjugated to BSA) (peptide, as listed by the source): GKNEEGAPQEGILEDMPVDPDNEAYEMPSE

B1: monoclonal antibody 2F11 (hybridoma ATCC #PTA-124174) (antibody, V domains shown)
VH: EVQLQQSGAELVRSGASVKLSCTASGFNIKDYYMFWVKQRPEQGLEWIGWNDPENGDTEYAPKFQGKATMTADTSSNTAYLQLSSLTSEDTAVYYCNAWDGNYVMDYWGQGTSVTVSS
VL: QIVLTQSPAIMSASLGERVTMTCTASSSVSSSYLHWYQQKPGSSPKLWIYSTSNLASGVPPRFSGSGSGTSYSLTISSMEAEDAATYYCHQYHRSPPMYTFGGGTKLE
notes: Mouse monoclonal, IgG1 kappa; Used as hybridoma supernatant or Protein G purified; with gold-labelled detection for electron microscopy; also called clone 2F11; 2F11 antibody
- binding result [1]: binds
- binding result [2]: no binding (tested: 1 µg/mL antibody)
- binding result [3]: no binding (tested: 1 µg/mL antibody)
- binding result [4]: no binding (tested: 1 µg/mL antibody)
- binding result [5]: no binding (tested: 1 µg/mL antibody)
- binding result [6]: no binding (tested: 1 µg/mL antibody)
